{"source": "paper PMC9004346", "about": "(2022)", "binders": {"B1": {"name": "CK2α (protein)", "chain": "MSGPVPSRARVYTDVNTHRPREYWDYESHVVEWGNQDDYQLVRKLGRGKYSEVFEAINITNNEKVVVKILKPVKKKKIKREIKILENLRGGPNIITLADIVKDPVSRTPALVFEHVNNTDFKQLYQTLTDYDIRFYMYEILKALDYCHSMGIMHRDVKPHNVMIDHEHRKLRLIDWGLAEFYHPGQEYNVRVASRYFKGPELLVDYQMYDYSLDMWSLGCMLASMIFRKEPFFHGHDNYDQLVRIAKVLGTEDLYDYIDKYNIELDPRFNDILGRHSRKRWERFVHSENQHLVSPEALDFLDKLLRYDHQSRLTAREAMEHPYFYTVVKDQARMGSSSMPGGSTPVSSANMMSGISSVPTPSPLGPLAGSPVIAAANPLGMPVPAAAGAQQ"}}, "test_in_all_cases": "fluorescence polarisation competition", "key": {"P4": {"biological_target": "T1, P4", "T1 chain": "Ac-RLYGFKWH-NH2"}, "P7C8": {"biological_target": "T2, P7C8 (bridge 1-8; not fully specified (N-terminus, C-terminus, bridges); printed as C_C8_RLYGFKW_C8_; also: structure of constraint C8 not given here in text)", "T2 chain": "CRLYGFKW"}, "P5C7": {"biological_target": "T3, P5C7 (linker 1-8 via C7; not fully specified (N-terminus, C-terminus); also: structure of constraint C7 not given here in text)", "T3 chain": "CRLYGFKC"}, "P2": {"biological_target": "T4, P2", "T4 chain": "Ac-LYGFKW-NH2"}, "P5C4": {"biological_target": "T5, P5C4 (linker 1-8 via C4; not fully specified (N-terminus, C-terminus); also: structure of constraint C4 not given here in text)", "T5 chain": "CRLYGFKC"}, "P3": {"biological_target": "T6, P3", "T6 chain": "Ac-RLYGFKW-NH2"}, "P5C5": {"biological_target": "T7, P5C5 (linker 1-8 via C5; not fully specified (N-terminus, C-terminus); also: structure of constraint C5 not given here in text)", "T7 chain": "CRLYGFKC"}, "P1": {"biological_target": "T8, P1", "T8 chain": "Ac-RLYGFK-NH2"}}, "note": "Bridges are numbered along the chain shown (N, C = ends). Where no end group is shown, it is not given here. C4 = constraint linking the two cyclising residues; C5 = constraint linking the two cyclising residues; C7 = constraint linking the two cyclising residues", "data": [{"binder": "B1", "values": [{"measurement": "IC50", "setting": "P4", "result": 16.7, "unit": "µM"}, {"measurement": "IC50", "setting": "P7C8", "result": 15.6, "unit": "µM"}, {"measurement": "IC50", "setting": "P5C7", "result": 40, "unit": "µM"}, {"measurement": "IC50", "setting": "P2", "result": 137, "unit": "µM"}, {"measurement": "IC50", "setting": "P5C4", "result": 54.6, "unit": "µM"}, {"measurement": "IC50", "setting": "P3", "result": 22.5, "unit": "µM"}, {"measurement": "IC50", "setting": "P5C5", "result": 28.9, "unit": "µM"}, {"measurement": "IC50", "setting": "P1", "result": "> 500", "unit": "µM"}]}]}
